Values of other authors as cited in paper PMC8980424.

What was measured:
[1] = biological target: IFNAR2 (Homo sapiens) (UniProt P48551)
[2] = biological target: IFNAR1 (Homo sapiens) (UniProt P17181)
[3] = biological target: IFNAR1 (Mus musculus) (UniProt P33896)
[4] = biological target: IFNAR2 (Mus musculus) (UniProt O35664)
Chain of UniProt O35664 (O35664 22-242): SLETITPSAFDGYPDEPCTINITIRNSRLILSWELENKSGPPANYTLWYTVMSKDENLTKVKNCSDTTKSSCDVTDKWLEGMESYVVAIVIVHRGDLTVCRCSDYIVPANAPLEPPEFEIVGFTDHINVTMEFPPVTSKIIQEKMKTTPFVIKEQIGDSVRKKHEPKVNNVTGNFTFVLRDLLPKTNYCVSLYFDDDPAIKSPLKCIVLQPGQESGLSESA

Chain of UniProt P48551 (P48551 27-243): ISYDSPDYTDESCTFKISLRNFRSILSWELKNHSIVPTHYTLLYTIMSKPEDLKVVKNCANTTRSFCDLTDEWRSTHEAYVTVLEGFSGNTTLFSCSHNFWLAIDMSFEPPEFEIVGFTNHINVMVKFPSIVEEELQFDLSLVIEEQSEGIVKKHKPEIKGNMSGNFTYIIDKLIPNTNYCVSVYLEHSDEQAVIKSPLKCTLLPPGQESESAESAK
Chain of UniProt P17181 (P17181 28-436): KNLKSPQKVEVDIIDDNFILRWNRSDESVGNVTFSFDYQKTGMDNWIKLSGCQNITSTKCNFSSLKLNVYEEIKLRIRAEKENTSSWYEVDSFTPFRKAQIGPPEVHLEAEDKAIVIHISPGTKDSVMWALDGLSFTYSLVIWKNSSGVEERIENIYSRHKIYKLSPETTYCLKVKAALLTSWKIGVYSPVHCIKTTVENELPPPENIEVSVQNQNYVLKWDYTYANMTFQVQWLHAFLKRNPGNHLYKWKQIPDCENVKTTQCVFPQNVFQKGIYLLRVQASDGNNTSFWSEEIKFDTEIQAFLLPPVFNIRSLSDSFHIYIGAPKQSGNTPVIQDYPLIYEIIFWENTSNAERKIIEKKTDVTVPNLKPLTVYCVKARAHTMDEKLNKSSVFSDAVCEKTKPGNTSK
Chain of UniProt P33896 (P33896 27-429): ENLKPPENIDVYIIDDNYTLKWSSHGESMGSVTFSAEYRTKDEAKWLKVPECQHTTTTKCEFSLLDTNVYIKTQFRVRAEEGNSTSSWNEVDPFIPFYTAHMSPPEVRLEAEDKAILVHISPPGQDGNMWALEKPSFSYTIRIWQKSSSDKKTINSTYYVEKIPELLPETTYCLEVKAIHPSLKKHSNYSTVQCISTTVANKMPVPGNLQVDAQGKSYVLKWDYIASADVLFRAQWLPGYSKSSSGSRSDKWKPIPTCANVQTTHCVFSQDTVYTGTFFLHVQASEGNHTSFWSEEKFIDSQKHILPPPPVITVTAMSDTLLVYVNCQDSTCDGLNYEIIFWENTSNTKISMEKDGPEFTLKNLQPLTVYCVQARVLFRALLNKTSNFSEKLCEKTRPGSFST

Row | Substance | Kd [1] [nM] | Kd [2] [nM] | Kd [3] [nM] | Kd [4] [nM]
1 | Interferon beta (from UniProt P01574) | 0.1 | 30 |  | 
2 | Interferon beta (from UniProt P01575) |  |  | 10 | 1700
